# According to WO2010028796A1 (dated 2010):
# B1: BNN-1000-1000 (antibody, human IgG1, kappa, L234A L235A, V domains shown)
# VH: QVQLQESGPGLVKPSQSLSITCTVSGFPLGAFGVHWVRQSPGKGLEWLGVIWKGGNTDYNAAFKSRLRITKDNSKSQVFFRMNSLQTDDTATYYCAKVNLADAMDYWGQGTTVTVSS
# VL: DIQMTQSPASLSASVGETVTITCRASGNAHGYLAWYQQKPGKAPKLLIYNTKTLAEGVPSRFSGSGSGTQFSLKINSAQPEDFGNYYCQHHYDLPRTFGGGTKVEIKR
# B2: HNN-1000-1000 (antibody, V domains shown)
# VH: QVQLQQSGPEVVKPGASVKMSCKASGYTFTSYVIHWVRQKPGQGLDWIGYINPYNDGTDYDEKFKGKATLTSDTSTSTAYMELSSLRSEDTAVYYCAREKDNYATGAWFAYWGQGTLVTVSS
# VL: DIVMTQSPDSLAVSLGERVTMNCKSSQSLLYSTNQKNYLAWYQQKPGQSPKLLIYWASTRESGVPDRFSGSGSGTDFTLTISSVQAEDVAVYYCQQYYSYRTFGGGTKLEIK
# What was measured:
# human CCR5 = human CCR5 (human, UniProt P51681 1-352); test: cell-based or functional assay
# Sequence of human CCR5 (P51681 whole entry): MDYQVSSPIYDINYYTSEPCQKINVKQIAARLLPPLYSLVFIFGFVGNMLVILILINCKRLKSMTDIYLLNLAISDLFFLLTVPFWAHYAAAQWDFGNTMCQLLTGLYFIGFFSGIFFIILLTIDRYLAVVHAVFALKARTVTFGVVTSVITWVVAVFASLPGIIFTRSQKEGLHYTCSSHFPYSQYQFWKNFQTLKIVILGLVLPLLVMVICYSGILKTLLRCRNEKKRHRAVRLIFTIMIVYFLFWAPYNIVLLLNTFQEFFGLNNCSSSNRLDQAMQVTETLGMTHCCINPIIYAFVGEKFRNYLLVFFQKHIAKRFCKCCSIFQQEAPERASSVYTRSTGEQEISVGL
# human CD4 = human CD4 (human, UniProt P01730 26-458); test: cell-based or functional assay
Binder,"IC50, PBMC antiviral assay (HIV-1 NLBal, p24 ELISA) (human CCR5)","IC50, PBMC antiviral assay (HIV-1 NLBal, p24 ELISA) (human CD4)"
B1,1.08 nM,
B2,,0.348 nM
